This passage reports Tm, ΔTm and Kd results from patent publication US20100286372A1 (SCHERING, published 2010).

Series [1] concerns the target T1, human PXR-LBD (pregnane X receptor ligand binding domain, residues 130-434) with N-terminal 6x His (human, UniProt O75469 130-434).
T1 construct: also called apo PXR; not shown: N-terminal 6x His tag
T1 sequence: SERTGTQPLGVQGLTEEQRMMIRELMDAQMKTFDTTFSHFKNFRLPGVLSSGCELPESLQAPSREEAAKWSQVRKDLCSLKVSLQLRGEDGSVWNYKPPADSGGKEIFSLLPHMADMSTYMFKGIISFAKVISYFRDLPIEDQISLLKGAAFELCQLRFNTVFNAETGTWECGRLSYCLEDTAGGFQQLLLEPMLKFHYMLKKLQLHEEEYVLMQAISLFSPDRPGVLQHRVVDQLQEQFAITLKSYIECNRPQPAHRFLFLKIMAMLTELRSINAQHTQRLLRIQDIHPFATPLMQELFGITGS
Description: temperature-dependent circular dichroism (thermal denaturation) of PXR with 50 uM peptide. On the technique in general: Circular dichroism is widely used to follow secondary structure.

Series [2] deals with T1, human PXR-LBD (pregnane X receptor …). Description: temperature-dependent circular dichroism (thermal denaturation), shift against apo PXR (Tm 41.5 C).
The target is the same in series [3]. Description: temperature-dependent circular dichroism (thermal denaturation at 220 nm), 2.5 uM PXR, 50 uM peptide.

In general, Kd refers to a measure of binding affinity in units of concentration. The low end stands for a tighter complex, the high end for a looser complex. Turning to CPSSHSSLTERHKILHRLLQEGSPS [SRC-1 peptide (676-CPSSHSSLTERHKILHRLLQEGSPS-700)], the Tm in series [1] was found to be 45.5 C. For the same molecule, the ΔTm in series [2] worked out at 4 C. In series [3], this molecule returned a Kd of 1340 nM.
